Source: paper PMC9119168 (Antiviral Research, 2022)
Where no end group is shown, it is not given here. Side-chain parts run from the residue outwards. The star is where a group is joined. Biotin = O=C1N[C@H]2[C@H](CS[C@H]2CCCCC(=O)*)N1; Aoa = not defined here

Legend:
[1] = biological target: T1, SARS-CoV-2 Mac1 (conserved macrodomain of non-structural protein 3), His-tagged (SARS-CoV-2, UniProt P0DTD1); assay: AlphaScreen or HTRF
[2] = biological target: T1, SARS-CoV-2 Mac1 (conserved macrodomain …); assay: fluorescence polarisation

Row | Binder | binding result [1] | binding result [2]
1 | ARTK(Biotin)QTARK([Aoa-ADP‑ribose])S (reading uncertain) [10 amino acid biotinylated and ADP-ribosylated peptide [ARTK(Bio)QTARK (Aoa-RADP)S]] | binds | 
2 | ARTKQTARKS [fluorescein labeled ADP-ribosylated peptide [5 Flu-ARTKQTARK (Aoa-RADP)S]] |  | binds
